In patent WO2021065846A1 (dated 2021):

Experiments:
[1] = molecular target: T1, anti-HIV-1 V3 antibody 1C10 (0.5γ); test: sandwich ELISA: Fab #92 coated as capture, 1C10, biotinylated IgG #87 as detection
T1 construct: Used as whole bivalent IgG; also called anti-V3 antibody 1C10; 1C10-biotin

[2] = molecular target: T1, anti-HIV-1 V3 antibody 1C10 (0.5γ); test: inhibition ELISA: biotinylated 1C10 on NNT20 V3 peptide
[3] = molecular target: T1, anti-HIV-1 V3 antibody 1C10 (0.5γ); test: SPR, Biacore T200, biotinylated 1C10 on SA chip, anti-idiotype antibody as analyte

T1 sequence (VH, as listed by the source, chain 1 of 2): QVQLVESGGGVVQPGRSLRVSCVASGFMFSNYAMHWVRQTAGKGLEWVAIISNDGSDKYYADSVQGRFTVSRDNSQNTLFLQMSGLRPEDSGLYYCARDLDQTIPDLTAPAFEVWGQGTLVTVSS
T1 sequence (VL, as listed by the source, chain 2 of 2): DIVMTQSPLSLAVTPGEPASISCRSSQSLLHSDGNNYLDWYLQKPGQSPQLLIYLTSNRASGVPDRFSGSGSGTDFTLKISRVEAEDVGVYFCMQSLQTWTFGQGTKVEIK

Binder | binding result [2] | also measured
Fab of anti-1C10 idiotype antibody #92 (Fab, V domains shown, VH cloned into a Fab heavy chain expression vector, co-expressed with the light chain vector, purified on His60 Ni resin; also called Fab#92; #92Fab) VH: QVQLQQSGAELAKPGASVKMSCKASGYTFTNYWMHWVKQRPGQGLEWIGFINPNTDYTEYNQKFTDKATLTADKSSNTAYMQLSSLTSEDSALYYCAREDTWFAYWGQGTLVTVSA VL: DIQMTQSPASLSASVGETVTITCRASENIYSYLAWYQQKQGKSPQLLVYNAKALAEGVPSRFSGSGSGTQFSLKINSLQPEDFGSYYCQHHYRTPYAFGGGTKLEIK | – | binding result [1]: binds
anti-1C10 idiotype antibody #92 (IgG) (antibody, V domains shown, Mouse variable regions cloned into human IgG expression vectors (pIgGH, pKVA2); also called clone #92; IgG#92) VH: QVQLQQSGAELAKPGASVKMSCKASGYTFTNYWMHWVKQRPGQGLEWIGFINPNTDYTEYNQKFTDKATLTADKSSNTAYMQLSSLTSEDSALYYCAREDTWFAYWGQGTLVTVSA VL: DIQMTQSPASLSASVGETVTITCRASENIYSYLAWYQQKQGKSPQLLVYNAKALAEGVPSRFSGSGSGTQFSLKINSLQPEDFGSYYCQHHYRTPYAFGGGTKLEIK | binds | –
anti-1C10 idiotype antibody #87 (IgG) (antibody, V domains shown, Mouse variable regions cloned into human IgG expression vectors (pIgGH, pKVA2); Biotinylated where used as detection antibody; also called clone #87; IgG#87) VH: QVQLVETGGGLVRPGNSLKLSCVTSGFTFSTYRMHWLRQPPGKRLEWIAVITVKSDGYGANYAQSLKDRFTISRDDSKSSVFLQMNRLREEDTATYYCSRGPDFYGSTYWYFDVWGAGTT VL: DIVMTQSPSSLDVSVGEKVSMSCKSSQSLLYRSNQKNYLAWYQQKPGQSPRLLIYWASTRESGVPDRFTGSGSGTDFTLTISSVKAEDLAVYYCQQYYSYSTFGAGTKVELK | – | Kd [3]: 0.0343 nM
anti-1C10 idiotype antibody #102 (IgG) (antibody, V domains shown, Mouse variable regions cloned into human IgG expression vectors (pIgGH, pKVA2)) VH: EVKLLESGGGLVQPGISLKLSCAASGFDFTRDWMSWVRQAPGKGLEWIGEINPDSSAINYTPSLRDKFIISRDNAKNTLYLQMSKVRSEDTALYYCARRGYYGYYLDYWGQGTTLTVSS VL: DIVMTQSPSSLAVSVGEKVTMSCKSSQSLFFRSNQKNYLAWYQQKPGQSPKLLIYWASTGESGVPDRFTGSGSGTDFTLTISSVKAEDLAVYYCQQYYSYPTFGGGTKLEIK | binds | –
